Test results reported in publication PMC4866688, “Trypanosoma brucei DHFR-TS Revisited: Characterisation of a Bifunctional and Highly Unstable Recombinant Dihydrofolate Reductase-Thymidylate Synthase” (PLoS Neglected Tropical Diseases, 2016).

Substrate: O=c1ccn([C@H]2C[C@H](O)[C@@H](COP(=O)(O)O)O2)c(=O)[nH]1
Experiment: Kinetic analysis of TS activity (substrates)
Type: biochemical, Trypanosoma brucei
Conditions: other: clarified E. coli lysate, spectrophotometric assay
Procedure: The initial characterisation of TS was also carried out using a spectrophotometric assay. Owing to the pronounced instability of the recombinant protein, clarified ThyA^- E. coli lysates were used for characterisation, where the concentration of TS was calculated based on DHFR activity. […] . Enzymatic reactions were initiated by the addition of CH2THF (200 μM, Shircks Laboratories) and initial rates of CH2THF oxidation to DHF monitored by the increase in absorbance at 340 nm (ε = 6,200 M^-1 cm^-1). This method is not suitable for determination of the Km^app for CH2THF and a radiometric method was used instead. This method measures the release of tritiated water from 5-[^3H]-dUMP (American Radiochemicals, 14.3 Ci mmol^-1). Assays (40 μl final volume) contained 200 nM TS and varying amounts of CH2THF (37.5 μM– 4.8 mM) in DHFR-assay buffer. Reactions were initiated by adding 200 μM [^3H]-dUMP (5.55 × 10^5 dpm nmol^-1) and stopped after 10 min by the addition of 20 μl trichloroacetic acid. Residual 5-[^3H]-dUMP was removed by the addition of 200 μl of 10% (w/v) activated charcoal (Sigma). Aliquots (100 μl) of the supernatants were added to 2 ml of scintillation fluid (Pico-Fluor 40™, Packard Bioscience) and radioactivity determined using a Beckmann LS 6500 Scintillation Counter. […] Protein concentrations were determined using the BioRad protein assay based on the method of Bradford. […]

B1: T. brucei TS (Tsf-TbDHFR-TS) (Trypanosoma brucei brucei) (protein)
chain: MLSLTRILRKKIPVHELAGKISRPPLRPFSVVVASDEKGGIGDGGTIPWEIPEDMQYFRRVTTNLRGKNVKPSPSKRNAVVMGRKTWDSLPPKFRPLSNRLNVVLSRSATKEQLLAGIPDPIKRAEAANDVVAVNGGLEDALRMLVSKEHTSSIETVFCIGGGTIYKQALCAPCVNVLQAIHRTVVRPASNSCSVFFDIPAAGTKTPEGLELVRESITDERVSTGAGGKKYQFEKLVPRNSEEEQYLNLVGRIIDEGCTKCDRTGVGTRSLFGAQMRFSLRNNRLPLLTTKRVFWRGVCEELLWFLRGETNAKLLSDKGIHIWDGNGSRAFLDSRGLTDYDEMDLGPVYGFQWRHFGADYISCKVDSEGKGVDQIANIVKSLIENPDDRRMICTAWNPAALPRMALPPCHMMAQFYVSNGELSCMLYQRSCDMGLGVPFNIASYALLTFLMAKASGLRPGELVHTLGDAHVYSNHVEPCRKQLKRVPRPFPFIVFKQDKEFLEDFQESDIEVIDYSPYPVISMEMAV
notes: The open reading frame of DHFR-TS was amplified by PCR from T. brucei gDNA using specific oligonucleotides; made in house; host or cells: thyA- E. coli derived from BL21 Star (DE3); unpurified clarified lysate
- Km: 8.2 ± 0.6 µM
